Test results from patent US20210277128A1 (published 2021).

Columns and labels:
[1] = target: T1, SI-2C1, dimeric EGFR ECD fused to rabbit Fc (UniProt P00533 25-645, limits assumed); assay: ELISA, dimeric EGFR ECD-rabbit Fc coated, anti-human IgG-HRP detection
T1 construct: extracellular domain; Made in house

[2] = target: T2, Monomeric EGFR extracellular domain (ProSpec Bio, PKA-344) (UniProt P00533 25-645, limits assumed); assay: BLI (BLItz), antibody on anti-human IgG Fc tips, EGFR ECD 588 nM; benchmark antibody
T2 construct: extracellular domain; Bought reagent; also called EGFR ECD

[3] = target: T2, Monomeric EGFR extracellular domain …; assay: BLI (BLItz), antibody on anti-human IgG Fc tips, EGFR ECD 200 nM then Her3 ECD 200 nM

B1: SI-1C5 (antibody, human IgG1, kappa, V domains shown)
VH: QVQLQQSGAEVKKPGSSVKVSCKASGYTFTNYYIYWVRQAPGQGLEWIGGINPTSGGSNFNEKFKTRVTITVDESTNTAYMELSSLRSEDTAFYFCARQGLWFDSDGRGFDFWGQGSTVTVSS
VL: DIQMTQSPSSLSASVGDRVTITCRSSQNIVHSNGNTYLDWYQQTPGKAPKLLIYKVSNRFSGVPSRFSGSGSGTDFTFTISSLQPEDIATYYCFQYSHVPWTFGQGTKLQITR
notes: Monospecific anti-EGFR antibody
B1: binds [1].

B2: SI-1C4 (bispecific antibody, human IgG1, kappa, V domains shown)
VH: EVQLVESGGGLVQPGGSLRLSCAASGFTLSGDWIHWVRQAPGKGLEWVGEISAAGGYTDYADSVKGRFTISADTSKNTAYLQMNSLRAEDTAVYYCARESRVSFEAAMDYWGQGTLVTVSS
VL: DIQMTQSPSSLSASVGDRVTITCRASQNIATDVAWYQQKPGKAPKLLIYSASFLYSGVPSRFSGSGSGTDFTLTISSLQPEDFATYYCQQSEPEPYTFGQGTKVEIKR
notes: also called IC4
B2: binds [2].

B3: SI-1X1 (bispecific antibody, human IgG1, kappa)
heavy: not shown
light: QSALTQPASVSGSPGQSITISCTGTSSDVGGYNFVSWYQQHPGKAPKLMIYDVSDRPSGVSDRFSGSKSGNTASLIISGLQADDEADYYCSSYGSSSTHVIFGGGTKLTVLRTVAAPSVFIFPPSDEQLKSGTASVVCLLNNFYPREAKVQWKVDNALQSGNSQESVTEQDSKDSTYSLSSTLTLSKADYEKHKVYACEVTHQGLSSPVTKSFNRGEC
notes: Tetravalent IgG-(G4S)2-scFv; heavy chain entry holds gamma-1 heavy chain, connector and scFv; Anti-Her3 IgG moiety, anti-EGFR scFv
B3: binds [3].
